The DeepSol protein solubility set

Assay: soluble on expression in E. coli; label from the status in PepcDB or PDB records

Sequence | soluble on expression in E. coli
MSLRETIKVGEKAPAFTVAALNGVDSISLSDYKGKIVIVHLWSPTCPHCRETNKVLPGIIGPYSKKANLAYIMIAIDMDTLTLRPVIEEDKLNFAIHGYDPFDGSAKTMMDYEAPGTPCINIVDEKGNLVGVNVTDDQLKKYLKKRFSRNSEGHHHHHH | not soluble
MTIIGNPEIGLYTGKLPKGCELCRLGGKLVLFITGECDDNCYYCPVSDDRFGKNKIFANETEVNNSMDVIYEAYRMKALGAGITGGDPILEIGRVIEIIEELKNEFGYDFHIHLYTTGRYVNDDIMRELVNAGLDEMRFHPVKELYLNAVKVALKYDIDIGLELPAIPNEKDKIVRLIKWAEENNVKFVNLNELELNSRNYLNLNSKGFHAKHGITGVEGSFETALDVLKKFEDNKKITVHYCSSIYKDLVETRTRFFRIIKYSSKPYEEYTNEATVVRAIVKTKGEIPILENFGESTGSDEYSISPSIVGDLLNDYTNLINEIYIVEEHPDSRRLRVGEKLIYSKSKNS | not soluble
MSLICKRFALVGSGFIGQVHAASLARHEGSALTMVADAAPERAQALAARYGARAVTVSEAIHSDAIDAVLIASSTPSHAELLEAAARAGKAVYCEKPIDLSLARAREVVERVLPLNVPVTVGFNRRFDSSHQQLRRQLEQGLIGRVELVQMVCRASSMPPLDYLRSSGGQMRDQAIHFFDLLRFLTGDEVRTVAAMGAALALPDIAEFGDVDTSILMMQMRGGALAQLDNTRRTGHGYDERITLLGAEGALESGSQSPAGPTLWRGNQRIEPGLWPDWFSRVQGSYYQHLDAFIRSLNGETVADLPGLLDGLQAQAIAEAAVQSLQHGQFVAVDDEGHHHHHH | soluble
MSLKYLIDLHTHTIVSGHAYTTLLENIKQASQIGIKILGTSEHGPKMPGAPHIWYFGNMNKVPRKIYDVTVLRGCEADILNSNGDLDIPERIQNELDYIIASLHDVCIEPGTIEDNTKALLNAMNNPNIDILGHTGNPMYPIDIDAVVSKAKEKNVLIEINNGSLSGSREGSYDNCKKIAQACKKKGVKVILGTDSHISFTIGNFDKVQKLLDSVDMPKELIMNTDEKKIVEYLKAKGKLKNEGHHHHHH | soluble
MKKYTEMTKDELMQEKTALEAEYEKIKNLGLSLDMSRGKPGADQLDLSLPMLDVLKSDSDMKSESGLDVRNYACLDGIPEAKALIAGMVGAKPEQAIVYGNSSLNIMYDQVARAFIFGLCGNTPWCKLDKVKFLCPVPGYDRHFAITEEFGVEMINIPMTEDGPDMDMVEKYVNNDASVKGIWCVPKYSNPQGVVYSDETVERFAKLKPAADDFRIFWDNAYTVHHLYDDKQAEIPNILELCEKEGNPDMVFEFCSTSKVTFPGAGVAGICTSEKNREDIKKRLTIQTIGHDKINQLRHARFFKDVDGIKAHMAKHAALIRPKFELVENILTDEIASRGIGTWVKPLGGYFFGFEALSGCAKEIVAKCKEAGVTMTGAGSPFPYKKDPDDSVIRIAPTYPSLDELKKAAEVFVIVTRLVSVNKLLEA | not soluble
WILASTTEGAPSVAPLNVTVFLNESSDNVDIRWMKPPTKQQDGELVGYRISHVWQSAGISKELLEEVGQNGSRARISVQVHNATCTVRIAAVTRGGVGPFSDPVKIFIPAH | soluble
MSLTGGLFGAKPAGSTTGGLFGANTSTQQPAATQGSGLFGAKPTGTGLFGGQTQGSTTSGASAGGLFGKSANPAPGGAGLFGNTAQSNSVSSNTGGLFGSKPAATGGLFGGQPSAPLSTFGQNPATTSLQTPGTGSLFGAKPVSTIAPNTASQMQQQTGISTTNPYGTNELFTRITIPESITAPSQPRFTKVNTDTKATSLNTAYKLNPKPLFSKGSLPSASIAHATPSIDKAPQNTDKSDNETTLVKFGSSLFNPETDEALITADELLFNPDRKSFKTLLINKKKVNEALLNEKSTSPDKDIKRITFNEKSLLKDEDSVRSSIFDNVLETPTNTENKLSEASSVDHDFNERQEVSRPDLKGDLMPNGISKLPGVKGSDFTQMENGYYISPSLDTLASMSLFQLSSVTNFVVGHKDHGYIEFMEPVNLTDIPLTLICGGIIEFRPRACIVKSGNEAGFHGKGFNVRARIVCYKCFPLDKSTRKPVTNPDHALVKNHIKKFKSMPNCKFESYDPKTGTYVFAVDNAEGHHHHHH | soluble
MGSDKIHHHHHHMVTTRKPLRAAIIGLGRLGERHARHLVNKIQGVKLVAACALDSNQLEWAKNELGVETTYTNYKDMIDTENIDAIFIVAPTPFHPEMTIYAMNAGLNVFCEKPLGLDFNEVDEMAKVIKSHPNQIFQSGFMRRYDDSYRYAKKIVDNGDIGKIIYMRGYGIDPISGMESFTKFATEADSGGIFVDMNIHDIDLIRWFTGQDPVQAYGLTSNIAAPQLADIGEFETGVAQLKMSDGVIATLIGGRHAAHGNQVELEVMGSNGWVRIGEHPDLNRVTVFNDQGVVRPSLQSFGERFDTAFTDEVQDFVNNVIVGKQPEVTVDDGIKALKIAKACQQSANIGKLVDIQL | not soluble
MGSDKIHHHHHHMLVPMSEGDTSELDHDADHLAEGDERYLLRNKRQIRGLLQQLIDQRAVVTMHVAGRDMAVPTAVLEVDEDDDCVILDGSHNDASNRAIEQAKYLLCYAQLERVNIRFRLETPERLERDIHVAFRATLPDSLYHLQRRESYRLETPITDSPTCTIRQDAASGGNLNLQLRVIDISSGGLAVSLTTGMPLLDPQHTYRDCTLQLPDSAPIALPLTVCSQYKMTLPNGSEGFRVGMQFSDLPRGADETIQRYIFRVDRQRNARKSGVF | not soluble
PLGSQTTHELTIPNNLIGCIIGRQGANINEIRQMSGAQIKIANPVEGSSGRQVTITGSAASISLAQYLINARLSSEKGMGCS | soluble
NCRLFIGGIPKMKKREEILEEIAKVTEGVLDVIVYASAADKMKNRGFAFVEYESHRAAAMARRKLMPGRIQLWGHQIAVDWAEPEIDVDEDVMETV | soluble
MSLEVQDDINSVDDIDSKLYHSVEWFYENKMYEDAIVATIAIIRRFLLCGKLAPLKAFSKGKNFKLLLVEYDTQLQTKSLIFQNEPEIVTEEDKEELLAYASLIEGLILIDEWKKFVSTQINSQGKWLSTGVDSSIDKTSKTLLNLIFKWFKNTSSEKDSDLAIYSEFRSIYVPYLIIELLKIFQNAREKDWKYMRSAFSLINDVANEEQNDFLSCFLKCGRLDEFLVKAGEVSIVAVEKGISGIFYEGHHHHHH | not soluble
SSGAQGAEPMDSRTATTYESVEGGQNKTKLDIRSKEDEGGIQVDKLQDKVSDAAGLGGPVFGAGKDDKKQDLGVTGTG | soluble
MEPKDTTTNDAFKGFTNTACPFLPCHKGVKREFNCLFCYCPLIAYECPGPYQVYTDKNGLTRKDCTNCTLPHDGYLASWNFIQKWLERPVIWSGAAQTTPPTRRPGRAPGDGDEELEHHHHHH | soluble
MLKTPLYESHMAANAKMVDFSGWSMPINYGSQIQEHNNVREDCGIFDVSHMLAVDIQGSEAEKFLRYLLANDVAKLQENKAQYGCMLNHDAGIVDDLITYKVTDEHFRIVVNAGNRESDVAWFNQNAQNFDVAITPQTDLAIVAVQGPKAVAVIKRVVTKEIATEIEALLPFSFKFFSKWMVARTGYTGEDGFEVILPATQVKKFWDSLLENGAQPAGLGARDTLRLEAGMHLYGADMDTSTTPLERGLGWSVDLSDEHRDFIGKKAYFAKKAQGVDTKWVGVVLKTKGVLRAGQEIDFDNGEKGYITSGSFSPTLKVAIGLAYVPKQADNPVVNIRGKELEVELVKPKFVKNGKSLI | not soluble
GPGSMTVVTTESGLKYEDLTEGSGAEARAGQTVSVHYTGWLTDGQKFDSSKDRNDPFAFVLGGGMVIKGWDEGVQGMKVGGVRRLTIPPQLGYGARGAGGVIPPNATLVFEVELLDV | soluble
MGSDKIHHHHHHMSSIVLAVGNGKTLFGGSGVAPDADLVRFVDPESPIINAFDLCALRGDGIFEATTVWRGFPVSLENHLKRLANSARLVDMPEPNIPALTRAVQLVIDQYDDPEPGPMLRIIVSRGLDPDTGVGKAADRTPTVYIFLDAKGTLHSLEPITMASMTRGYPSDITARAPWLLNGAKTLSYAFNCAVHRECARRGVGDAILFTEDGYTMECPNSSIVARYGDTFVTPDPRIGILNGTSQREMFAWALEEGKKAEYRKLPIAELREADSLYMTHGGWSIPISAIDGRALAVDAAEIQAINDAIHSGRTHEDALKIGPTGDYE | not soluble
MEKKLVPQSISKERLQKLEAQATLTPQQEEAKARKIEREKARLKELNIPTESKESKDCSPAGMINPYALTEVILERPLDWSNPRTTDIVERVLGSSMQDLSKGDSVLRAGRDQNAEVKIVDSVLTKTQRGQDGLERILESFNDYDMPPEEKEEAAPKAKKAAQKLDIDDLREQALSSTTITKEISKIILPTKNLRDDNNTVHQYREVGFQSNGAHNLWDTVVQGIAGDC | not soluble
GPHMASMLEAKFEEASLFKRIIDGFKDCVQLVNFQCKEDGIIAQAVDDSRVLLVSLEIGVEAFQEYRCDHPVTLGMDLTSLSKILRCGNNTDTLTLIADNTPDSIILLFEDTKKDRIAEYSLKLMDIDADFLKIEELQYDSTLSLPSSEFSKIVRDLSQLSDSINIMITKETIKFVADGDIGSGSVIIKPFVDMEHPETSIKLEMDQPVDLTFGAKYLLDIIKGSSLSDRVGIRLSSEAPALFQFDLKSGFLQFFLAPKFNDEGSNSQSNGSGALEAKFEEASLFKRIIDGFKDCVQLVNFQCKEDGIIAQAVDDSRVLLVSLEIGVEAFQEYRCDHPVTLGMDLTSLSKILRCGNNTDTLTLIADNTPDSIILLFEDTKKDRIAEYSLKLMDIDADFLKIEELQYDSTLSLPSSEFSKIVRDLSQLSDSINIMITKETIKFVADGDIGSGSVIIKPFVDMEHPETSIKLEMDQPVDLTFGAKYLLDIIKGSSLSDRVGIRLSSEAPALFQFDLKSGFLQFFLAPKFNDEGSNSQASNSGALEAKFEEASLFKRIIDGFKDCVQLVNFQCKEDGIIAQAVDDSRVLLVSLEIGVEAFQEYRCDHPVTLGMDLTSLSKILRCGNNTDTLTLIADNTPDSIILLFEDTKKDRIAEYSLKLMDIDADFLKIEELQYDSTLSLPSSEFSKIVRDLSQLSDSINIMITKETIKFVADGDIGSGSVIIKPFVDMEHPETSIKLEMDQPVDLTFGAKYLLDIIKGSSLSDRVGIRLSSEAPALFQFDLKSGFLQFFLAPKFNDEE | soluble
MGSDKIHHHHHHMNTRSDVSKLIAQRKPRHALPRALYSNLAVYQQDLQQLWHKDWIFAGHTFELEKSGQYLSLQIGDYPVAVVRGADGQVRAFHNSCRHRGSKVCPEAKGKVAKLVCPYHKWTFELDGRLLFAGNMGDDFDKSQYNLKPVHCEIVNTYIYVCVAEAAPDFSAFREAVTPFLMPHNLEDCKVAFESNLIEKGNWKLVFENNRECYHCDGTHPELMNSFVENLSVAGVGGSDDPQLTAHWDRCEAAGLPSRLVMDNDGRFRITRIPLSSGAVSYTMDGKPAVAVRLDASGEADIGALLYFNYPSTWNHFLGDHALSFRVLPLGPNETLVTTKWIVKKTAVEGLDYDLDRLTKVWLATNDQDRTLVEGAQVGVNSPAYEPGPFSSKAENGVCQFDDWYCEIMLDRLGDDRAQASIKLKSVG | not soluble
MYKTFYSLSREPFAKETDPSEAYQGAAFQEALRALEYVKRTRGIGLLIGEPGAGKTFALRALKESLNPSLYHVVYFPLSTGGVMDFYRGLALGLGEEPKYRKVDLFRQIQQAIERLHHERRITPVFILDEMHLAKDAFLQDIAILFNFEMDSTNPFVLILAGLPHLQGKLRLNQHRPLDQRIIMRYRMGPMEKEEVAGYIEHRMKQAGAKHPIFTPSALEAIALQSRGWPRVINTLATTCLLYGHQLKKDVIDEEVVRMAAEEMGY | not soluble
IQKMANSFQKLASSVVLFETEINEFLVLFTDTKNKREESEPVRQVSTTQEYHQVTLDQQHYFNHKLSDYFRLFKDKTFFFEII | not soluble
